Test results: patent publication US20220133889A1 (published 2022)

Key:
[1] = target: TIM-3 (assay antigen; species and construct not stated) (UniProt Q8TDQ0 22-202); test: SPR (BIAcore)
[2] = target: T1, cynomolgus TIM-3 expressed on transfected cells (cynomolgus, UniProt A0A2K5U3G7 22-294); test: cell binding (FACS); cyno TIM-3 cells
T1 chain: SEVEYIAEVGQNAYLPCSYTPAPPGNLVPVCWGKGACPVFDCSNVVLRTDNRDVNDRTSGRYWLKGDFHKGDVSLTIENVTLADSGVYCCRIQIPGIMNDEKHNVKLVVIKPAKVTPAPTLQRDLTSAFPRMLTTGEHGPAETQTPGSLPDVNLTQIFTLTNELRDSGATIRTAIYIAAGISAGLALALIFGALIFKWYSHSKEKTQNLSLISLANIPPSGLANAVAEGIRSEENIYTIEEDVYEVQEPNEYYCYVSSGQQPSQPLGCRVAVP

[3] = target: human TIM-3 expressed on cells (UniProt Q8TDQ0 22-301); test: cell binding (FACS); TIM-3-transfected 300.19 cells

Kd [1]: 0.042 nM
Kd [2]: 0.68 nM
Kd [3]: 0.16 nM
B1: ABTIM3 (antibody, V domains shown)
VH: QVQLQQPGAELVKPGASVKMSCKASGYTFTSYNMHWIKQTPGQGLEWIGDIYPGNGDTSYNQKFKGKATLTADKSSSTVYMQLSSLTSEDSAVYYCARVGGAFPMDYWGQGTSVTVSS
VL: DIVLTQSPASLAVSLGQRATISCRASESVEYYGTSLMQWYQQKPGQPPKLLIYAASNVESGVPARFSGSGSGTDFSLNIHPVEEDDIAIYFCQQSRKDPSTFGGGTKLEIK
